In the supplement of paper PMC10201428:
± gives the standard deviation of the averaged measurements.

Experiments:
[1] = system: VchCAST RNA-guided transposition machinery (E. coli BL21(DE3) host, lacZ target); assay: relative integration efficiency (T-RL orientation) vs wild-type transposon end (log2 (normalized fold change)); transposon end mutated: right end (5 bp flank + 75 bp right end); higher = more efficient transposition
Outline: (§1)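 In E. coli BL21(DE3), a T7-driven effector plasmid was paired with a pUC57 mini-transposon donor containing 1549 left-end or 1849 right-end barcoded transposon variants. Cells grew on plates with 0.1 mM IPTG at 37°C for 18 h. Relative integration efficiency was derived from Illumina reads of genomic integration junctions against input plasmids, as a log-transformed output/input barcode fold change normalised to reference barcodes.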

[2] = system: VchCAST RNA-guided transposition machinery (E. coli BL21(DE3) host, lacZ target); assay: relative integration efficiency (T-LR orientation) vs wild-type transposon end (log2 (normalized fold change)); transposon end mutated: right end (5 bp flank + 75 bp right end); higher = more efficient transposition
Outline: as §1

| Sequence | relative integration efficiency (log2) [1] | relative integration efficiency (log2) [2] |
| --- | --- | --- |
| ACATTTGTTGATACACCCATAAATTGATAATTACAACCATATATTGATATCTCTCACAACCATAAGTTGATATTTTCTCTGATCATAGTCAGACCAACATTGCTACGACCCGTATTCGCACCGACAC | 0.516 ± 0.26 | 0.798 ± 0.25 |
| ACATTTGTTGATACACCCATAAATTGATAATTACAACCATATATTGATATCTCTCACAACCATATATTGATATCTCCTCTGATCATAGTCAGACCAACATTGCTACGACCCGTATTCGCACCGACAC | -0.949 ± 0.26 | 0.0245 ± 0.11 |
| ACATTTGTTGATACACCCATAAATTGATAATTACAACCATATATTGATATCTCTCACACCCATAAATTGATAATTACTCTGATCATAGTCAGACCAACATTGCTACGACCCGTATTCGCACCGACAC | -0.753 ± 0.22 | 0.157 ± 0.34 |
| ACATTTGTTGATACACCCATAAATTGATAATTACAACCATATATTGATATCTCTCACACCCATAAATTGATATTGCCTCTGATCATAGTCAGACCAACATTGCTACGACCCGTATTCGCACCGACAC | -0.676 ± 0.13 | -0.339 ± 0.29 |
| ACATTTGTTGATACACCCATAAATTGATAATTACAACCATATATTGATATCTCTCAGTGGGTATTTAACTATAACGCTCTGATCATAGTCAGACCAACATTGCTACGACCCGTATTCGCACCGACAC | -1.17 ± 0.28 | 2.39 ± 0.18 |
| ACATTTGTTGATACACCCATAAATTGATAATTACACCCATAAATTGATAATTATCACAACCATAAAATGATAATTACTCTGATCATAGTCAGACCAACATTGCTACGACCCGTATTCGCACCGACAC | -0.366 ± 0.2 | -0.749 ± 0.39 |
| ACATTTGTTGATACACCCATAAATTGATAATTACACCCATAAATTGATAATTATCACAACCATAAAGTGATATTTACTCTGATCATAGTCAGACCAACATTGCTACGACCCGTATTCGCACCGACAC | -0.445 ± 0.034 | -0.01 ± 0.22 |
| ACATTTGTTGATACACCCATAAATTGATAATTACACCCATAAATTGATAATTATCACAACCATAAGTTGATATTTTCTCTGATCATAGTCAGACCAACATTGCTACGACCCGTATTCGCACCGACAC | -0.361 ± 0.17 | -0.206 ± 0.42 |
| ACATTTGTTGATACACCCATAAATTGATAATTACACCCATAAATTGATAATTATCACAACCATATATTGATATCTCCTCTGATCATAGTCAGACCAACATTGCTACGACCCGTATTCGCACCGACAC | -0.596 ± 0.21 | -0.271 ± 0.04 |
| ACATTTGTTGATACACCCATAAATTGATAATTACACCCATAAATTGATAATTATCACACCCATAAATTGATAATTACTCTGATCATAGTCAGACCAACATTGCTACGACCCGTATTCGCACCGACAC | -0.6 ± 0.15 | -0.257 ± 0.33 |
| ACATTTGTTGATACACCCATAAATTGATAATTACACCCATAAATTGATAATTATCACACCCATAAATTGATATTGCCTCTGATCATAGTCAGACCAACATTGCTACGACCCGTATTCGCACCGACAC | -0.116 ± 0.036 | -0.0387 ± 0.31 |
| ACATTTGTTGATACACCCATAAATTGATAATTACACCCATAAATTGATAATTATCAGTGGGTATTTAACTATAACGCTCTGATCATAGTCAGACCAACATTGCTACGACCCGTATTCGCACCGACAC | -0.394 ± 0.0092 | 2.54 ± 0.063 |
| ACATTTGTTGATACACCCATAAATTGATAATTACACCCATAAATTGATATTGCTCACAACCATAAAATGATAATTACTCTGATCATAGTCAGACCAACATTGCTACGACCCGTATTCGCACCGACAC | -0.918 ± 0.33 | -0.204 ± 0.23 |
| ACATTTGTTGATACACCCATAAATTGATAATTACACCCATAAATTGATATTGCTCACAACCATAAAGTGATATTTACTCTGATCATAGTCAGACCAACATTGCTACGACCCGTATTCGCACCGACAC | -0.813 ± 0.18 | -0.114 ± 0.24 |
| ACATTTGTTGATACACCCATAAATTGATAATTACACCCATAAATTGATATTGCTCACAACCATAAGTTGATATTTTCTCTGATCATAGTCAGACCAACATTGCTACGACCCGTATTCGCACCGACAC | -0.802 ± 0.24 | 0.079 ± 0.1 |
| ACATTTGTTGATACACCCATAAATTGATAATTACACCCATAAATTGATATTGCTCACAACCATATATTGATATCTCCTCTGATCATAGTCAGACCAACATTGCTACGACCCGTATTCGCACCGACAC | -1.02 ± 0.26 | 0.128 ± 0.24 |
| ACATTTGTTGATACACCCATAAATTGATAATTACACCCATAAATTGATATTGCTCACACCCATAAATTGATAATTACTCTGATCATAGTCAGACCAACATTGCTACGACCCGTATTCGCACCGACAC | -0.735 ± 0.34 | 0.319 ± 0.23 |
| ACATTTGTTGATACACCCATAAATTGATAATTACACCCATAAATTGATATTGCTCACACCCATAAATTGATATTGCCTCTGATCATAGTCAGACCAACATTGCTACGACCCGTATTCGCACCGACAC | -0.538 ± 0.15 | 0.393 ± 0.28 |

| Sequence | relative integration efficiency (log2) [1] | relative integration efficiency (log2) [2] |
| --- | --- | --- |
| ACATTTGTTGATACACCCATAAATTGATAATTACACCCATAAATTGATATTGCTCAGTGGGTATTTAACTATAACGCTCTGATCATAGTCAGACCAACATTGCTACGACCCGTATTCGCACCGACAC | -1.23 ± 0.25 | 2.63 ± 0.18 |
| ACATTTGTTGATACACCCATAAATTGATATTGCCAACCATAAAATGATAATTATCACAACCATAAAATGATAATTACTCTGATCATAGTCAGACCAACATTGCTACGACCCGTATTCGCACCGACAC | -0.123 ± 0.11 | -0.058 ± 0.3 |
| ACATTTGTTGATACACCCATAAATTGATATTGCCAACCATAAAATGATAATTATCACAACCATAAAGTGATATTTACTCTGATCATAGTCAGACCAACATTGCTACGACCCGTATTCGCACCGACAC | -0.59 ± 0.12 | -0.327 ± 0.1 |
| ACATTTGTTGATACACCCATAAATTGATATTGCCAACCATAAAATGATAATTATCACAACCATAAGTTGATATTTTCTCTGATCATAGTCAGACCAACATTGCTACGACCCGTATTCGCACCGACAC | -0.46 ± 0.23 | -0.175 ± 0.71 |
| ACATTTGTTGATACACCCATAAATTGATATTGCCAACCATAAAATGATAATTATCACAACCATATATTGATATCTCCTCTGATCATAGTCAGACCAACATTGCTACGACCCGTATTCGCACCGACAC | -0.961 ± 0.18 | -0.207 ± 0.002 |
| ACATTTGTTGATACACCCATAAATTGATATTGCCAACCATAAAATGATAATTATCACACCCATAAATTGATAATTACTCTGATCATAGTCAGACCAACATTGCTACGACCCGTATTCGCACCGACAC | -0.642 ± 0.2 | -0.568 ± 0.82 |
| ACATTTGTTGATACACCCATAAATTGATATTGCCAACCATAAAATGATAATTATCACACCCATAAATTGATATTGCCTCTGATCATAGTCAGACCAACATTGCTACGACCCGTATTCGCACCGACAC | -0.863 ± 0.071 | -0.203 ± 0.43 |
| ACATTTGTTGATACACCCATAAATTGATATTGCCAACCATAAAATGATAATTATCAGTGGGTATTTAACTATAACGCTCTGATCATAGTCAGACCAACATTGCTACGACCCGTATTCGCACCGACAC | -1.21 ± 0.35 | 2.28 ± 0.096 |
| ACATTTGTTGATACACCCATAAATTGATATTGCCAACCATAAAGTGATATTTATCACAACCATAAAATGATAATTACTCTGATCATAGTCAGACCAACATTGCTACGACCCGTATTCGCACCGACAC | -0.499 ± 0.21 | -0.362 ± 0.13 |
| ACATTTGTTGATACACCCATAAATTGATATTGCCAACCATAAAGTGATATTTATCACAACCATAAAGTGATATTTACTCTGATCATAGTCAGACCAACATTGCTACGACCCGTATTCGCACCGACAC | -0.684 ± 0.13 | -0.426 ± 0.4 |
| ACATTTGTTGATACACCCATAAATTGATATTGCCAACCATAAAGTGATATTTATCACAACCATAAGTTGATATTTTCTCTGATCATAGTCAGACCAACATTGCTACGACCCGTATTCGCACCGACAC | -0.617 ± 0.14 | -0.0145 ± 0.0084 |
| ACATTTGTTGATACACCCATAAATTGATATTGCCAACCATAAAGTGATATTTATCACAACCATATATTGATATCTCCTCTGATCATAGTCAGACCAACATTGCTACGACCCGTATTCGCACCGACAC | -0.78 ± 0.17 | 0.117 ± 0.34 |
| ACATTTGTTGATACACCCATAAATTGATATTGCCAACCATAAAGTGATATTTATCACACCCATAAATTGATAATTACTCTGATCATAGTCAGACCAACATTGCTACGACCCGTATTCGCACCGACAC | -0.649 ± 0.14 | -0.215 ± 0.15 |
| ACATTTGTTGATACACCCATAAATTGATATTGCCAACCATAAAGTGATATTTATCACACCCATAAATTGATATTGCCTCTGATCATAGTCAGACCAACATTGCTACGACCCGTATTCGCACCGACAC | -0.74 ± 0.11 | -0.415 ± 0.17 |
| ACATTTGTTGATACACCCATAAATTGATATTGCCAACCATAAAGTGATATTTATCAGTGGGTATTTAACTATAACGCTCTGATCATAGTCAGACCAACATTGCTACGACCCGTATTCGCACCGACAC | -1.12 ± 0.16 | 2.341 ± 0.0029 |
| ACATTTGTTGATACACCCATAAATTGATATTGCCAACCATAAGTTGATATTTTTCACAACCATAAAATGATAATTACTCTGATCATAGTCAGACCAACATTGCTACGACCCGTATTCGCACCGACAC | -0.413 ± 0.23 | -0.0638 ± 0.3 |
| ACATTTGTTGATACACCCATAAATTGATATTGCCAACCATAAGTTGATATTTTTCACAACCATAAAGTGATATTTACTCTGATCATAGTCAGACCAACATTGCTACGACCCGTATTCGCACCGACAC | -0.583 ± 0.25 | -0.457 ± 0.31 |
